This is an account of results in US20180112219.

In series [1] the test system is 5' NS-TALEN (in cells) (artificial (TALE-FokI)). Put plainly: cell_activity. As to conditions: NS pair in HeLa-tat-III/LTR/d1EGFP cells; 2 of 23 clones mutated.
Series [2] deals with 5' NS-TALEN (artificial (TALE-FokI)). Put plainly: cleavage_in_vitro. As to conditions: pair with 3' HT-TALEN; 747 bp PCR template, 30 C.

With “TCTCTGGTTAGACCAGATCT (double strand) [5' TALE binding target, HIV-1 LTR TAR]”, the values for the activity in series [1] and in series [2] were 30 % GFP loss and 42 % cleavage, respectively.
